The target of this experiment is Prokaryotic ubiquitin-like protein Pup from Corynebacterium glutamicum with C-terminal glutamate (Corynebacterium glutamicum) (UniProt Q8NQE0). The experiment is described as follows: ITC; 25 °C, MicroCal iTC200; 150 µM CgluDop or 200 µM CgluDopGS injected into 15 or 20 µM CgluPupE in the cell; 50 mM Tris-HCl pH 8.0, 300 mM NaCl, 20 mM MgCl2; 1:1 binding model.
Prokaryotic ubiquitin-like protein Pup from Corynebacterium glutamicum with C-terminal glutamate (Corynebacterium glutamicum), sequence (Q8NQE0 whole entry): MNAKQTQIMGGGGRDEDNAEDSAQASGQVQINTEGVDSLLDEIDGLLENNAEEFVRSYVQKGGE

Consider “CgluDopGS, Dop-loop variant of Dop from Corynebacterium glutamicum (Dop-loop H43-I77 replaced with (GS)4) (enzyme)”, for which the fold tighter affinity than the wild type enzyme was found to be 2.5 fold.

(Values after PMC8599861, “Structures of prokaryotic ubiquitin-like protein Pup in complex with depupylase Dop reveal the mechanism of catalytic phosphate formation” (Nature Communications, 2021).)
